Data from US20020090619A1, “Methods for identifying mitochondrial divalent cation transporters” (priority 2000, published 2002).

Experiments:
[1] = Yuchi et al., 1993; cited from earlier work
[2] = test system: intact yeast; test: Aequorin luminescence in intact yeast cells expressing mitochondrially targeted aequorin; type: cell-based, Saccharomyces cerevisiae; conditions: intact cells
Procedure: Yeast cells (strain X4003-5B; leu2, ade1, his4, met2, ura3, trp5, gal1) obtained from the Yeast Genetic Stock Center (Berkeley, Calif.) were transformed with the pYES2 plasmid, encoding the human mitochondrially targeted apoaequorin fragment, using the lithium acetate method (Sambrook et al., 1989), and INVSc1 cells were transformed with the pGK plasmid encoding the yeast mitochondrially targeted apoaequorin fragment. Selection was carried out on plates prepared with synthetic complete medium minus uracil (SC-U) (Sherman, 1991 Meths. Enzymol. 194:3). Transformed colonies were cultured in a small volume of SC-U and assayed for aequorin activity in vitro as described by Nakajima et al. (1991 Proc. Nat. Acad. Sci. USA 88:6878). Briefly, the cells were harvested by centrifugation, resuspended in lysis buffer (50 mM Tris, 2 mM EDTA, 0.5 mM PMSF, pH 8 w/NaOH), disrupted by vortexing with glass beads, and then treated with 0.1% Triton X-100 to release apoaequorin from the mitochondria. Following centrifugation, 200 μl aliquots of the supernatants were incubated with coelenterazine (2.5 μM) and 2-mercaptoethanol (2 μl), for ˜3 hr while standing on ice, to form the luminescent aequorin from its apoprotein. The coelenterazine cofactor is highly hydrophobic and readily permeates yeast cell membranes (Nakajima et al., 1991) such that reconstitution was conducted without disrupting the cells in some cases. 2-mercaptoethanol was omitted when intact cells were employed. A transformant which yielded high luminescence (named X4003-5B-AEQmito1) was selected for further characterization.
For preculture, the transformant was inoculated into 50 ml of SC-U plus 2% glucose, and incubated in an air shaker at 180 rpm and 30° C. At 24 hr, the preculture was transferred to 500 ml of a medium containing 1% yeast extract, 2% peptone, 2% lactate, 1% galactose, 0.012% adenine, pH 5 w/NaOH, and growth was continued under conditions which were otherwise the same. […]
Luminescence measurements were carried out in 6×50 mm culture tubes, using a total volume of 0.3 ml, and were started by injection of 5-20 μl of mitochondria or cells. […] For each value, the ratio of observed luminescence (L) to the potential luminescence remaining (Lmax) was calculated, and compared to a calibration curve which relates this ratio to the free Ca^2+ concentration. […] The total luminescence available initially (Ltotal) must be known and was determined in separate experiments, wherein a saturating Ca^2+ concentration (20 μM) is employed to discharge the aequorin completely. This value allows Lmax to be calculated at any time, as Ltotal minus the sum of luminescence that already occurred. […]

[3] = test system: isolated yeast mitochondria; test: Ca2+ transport in isolated yeast mitochondria expressing aequorin (luminescence); type: biochemical, Saccharomyces cerevisiae; conditions: 2 μM A23187, medium containing no added Ca^2+, FIG. 22B
Procedure: For preculture, the transformant was inoculated into 50 ml of SC-U plus 2% glucose, and incubated in an air shaker at 180 rpm and 30° C. At 24 hr, the preculture was transferred to 500 ml of a medium containing 1% yeast extract, 2% peptone, 2% lactate, 1% galactose, 0.012% adenine, pH 5 w/NaOH, and growth was continued under conditions which were otherwise the same. Cells were harvested after an additional 24 hr, spheroplasts were prepared using zymolyase, and mitochondria were isolated by the method of Daum et al. (1982) as previously described (Jung et al., 1997). The final pellet was resuspended at ˜20 mg protein/ml in 0.6 M mannitol, 20 mM HEPES (K^+ salt, pH 6.8). Apoaequorin in the intact or disrupted mitochondria was reconstituted by incubation with coelenterazine as described above for cells.
For most experiments, the mitochondria were present at 0.4 mg protein/ml in a standard medium that contained 0.3 M KCl, 20 mM HEPES, (K^+ salt, pH 7.10), 10 mM KH2PO4, 2 mM EGTA, and 2 mM MgCl2. Other additions are described in greater detail below. Ca^2+ buffers were formed by adding various amounts of CaCl2 to this EGTA containing medium. The free Ca^2+ concentrations which resulted were calculated using a computer program (Brooks et al., 1992 Anal. Biochem. 201:119).
Luminescence measurements were carried out in 6×50 mm culture tubes, using a total volume of 0.3 ml, and were started by injection of 5-20 μl of mitochondria or cells. A SAI model 3000 integrating photometer was employed, with AJD sampling at 0.4 seconds intervals driven by Asyst software. Values were transformed into corresponding Ca^2+ concentrations by computer assisted calculations based upon published calibration methods (Allen et al., 1977 Science 195:996; Brini et al., 1995 J. Biol. Chem. 270:9896). For each value, the ratio of observed luminescence (L) to the potential luminescence remaining (Lmax) was calculated, and compared to a calibration curve which relates this ratio to the free Ca^2+ concentration. Thus, complete calibrated progress curves were generated. The total luminescence available initially (Ltotal) must be known and was determined in separate experiments, wherein a saturating Ca^2+ concentration (20 μM) is employed to discharge the aequorin completely. This value allows Lmax to be calculated at any time, as Ltotal minus the sum of luminescence that already occurred.
The calibration data were obtained at an ionic strength of 335 mM and in the presence of 1 mM Mg^2+, to mimic conditions in the mitochondrial matrix, because both factors influence the affinity of aequorin for Ca2+ (Cobbold et al., 1987 Biochem. J. 248:313). Luminescence values were corrected for low background values that are obtained when Ca^2+ is absent before conducting further calculations.

[4] = Esterase cleavage of divalent cation-sensitive indicator molecule precursors (fluorescence); type: biochemical; conditions: precursor 1 μg/ml, sonicated E. coli expressing the esterase
From the text: Standard molecular biology procedures were used (Sambrook et al., 1989 Molecular Cloning: A Laboratory Manual, Cold Spring Harbor Laboratory Press, Cold Spring Harbor, N.Y.). All reagents were from Sigma (St. Louis, Mo.) unless otherwise indicated. E. coli cells expressing esterases from several sources: B. subtilis para-nitrobenzyl esterase from plasmid PNB106R (Zock et al., 1994) (SEQ ID NO:1; SEQ ID NO:7); Acinetobacter areA expressed in E. coli strain BL21(DE3) (SEQ ID NO:2; from plasmid pADPW40, Jones et al. 1999 J. Bacteriol. 181:4568, obtained from Drs. R. Jones and P. Williams, Univeristy of Wales Bangor, UK); Acinetobacter SalE expressed in E. coli strain BL21(DE3) (SEQ ID NO:3; from plasmid pADPW70, Jones et al. 2000 J. Bacteriol. 1832:2018, also obtained from Drs. R. Jones and P. Williams, Univeristy of Wales Bangor, UK) were grown in 10 mL of standard LB media plus ampicillin (100 μg/ml) at 37° C. Tetracycline (10 μg/ml) was present instead of ampicillin for the cells expressing B. subtilis para-nitrobenzyl esterase. For strains expressing all proteins except para-nitrobenzyle esterase, the cells were grown to an OD (λ=600 nm) of 0.6 and protein expression was induced by administration of […] IPTG for 4 hours until the culture reached an OD600 of ˜1.0. Cells expressing para-nitrobenzylesterase were grown at 30° C. and protein expression was induced by a temperature shift to 40° C. for 6 hours. The cells attained an OD600 of ˜1.0. Cells were washed, pelleted by centrifugation, and then resuspended in 0.5 ml of cold 0.12 M Tris Cl, pH 8.0. Cells were sonicated for ten seconds and then incubated on ice for ten seconds. This sonication step was repeated eight times.
For fluorescence measurements, a volume of 50 μl of the sonicated cell suspension was placed in 3.0 ml of 0.1 M KCl, 50 uM EGTA, 20 mM HEPES pH 7.40. As a divalent cation-sensitive indicator molecule, one of the following compounds (all from Molecular Probes, Inc., Eugene, Oreg.) was present at a final concentration of 1 μg/ml: BCECF AM (BCECF (2′,7′-bis-(2-carboxyethyl)-5-(and-6)-carboxyfluorescein), a proton indicator used as an esterase-cleavable control), Rhod-2 AM, Fluo-3 AM, Indo-1 AM, or Fura-2 AM. To monitor detection of divalent cation using the divalent cation-sensitive indicator molecules generated by esterase cleavage of the precursor forms, each reaction was made 2 mM CaCl2 The wavelengths used for the indicator dyes were as follows: Fluo-3, excitation 488 nm, emission 520 nm; Rhod-2, excitation 540 nm, emission 580 nm; Indo-1 AM, excitation 338 nm, emission scan […]; Fura-2, excitation scan 250-450 nm, emission 510 nm; BCECF, excitation 440 nm, emission 550 nm.

Molecule	hydrolysis of indicator precursors (AM esters) to Ca^2+-sensitive indicator molecules [4]	also measured
COc1cc(N(CC(=O)O)CC(=O)O)c2nc(COc3cc(C)ccc3N(CC(=O)O)CC(=O)O)ccc2c1 [Quin-2]	–	pKa^4 [1]: 6.25
CNc1ccc2oc(C[C@H]3O[C@@]4(CC[C@H]3C)O[C@H]([C@H](C)C(=O)c3ccc[nH]3)[C@H](C)C[C@H]4C)nc2c1C(=O)O [A23187]	–	additional luminescence when added after the response to ETH 129 [2]: absence of any additional luminescence; effect on matrix Ca^2+ concentration [3]: reduced the matrix Ca^2+ concentration below the detection limit
areA: Acinetobacter areA esterase expressed in E. coli BL21(DE3) (SEQ ID NO:2) (protein, listed as Acinetobacter sp.) MLQSLDPQLASFFAMLENQGAPAFDIGTLNDPNINEMRNWYLNFGPHVAGQFIELQDVEDLWIQVDDGSLRLRLYKTQRQHSESCETLIYFHGGGWCIGSIETHDLLCRHLVNDLDVNVISVDYRLAPEYPYPQAAHDAIHATQWIFEHASALGIHPDHLYVAGDSAGGNLAAITALTFKEQTYRTSLAGQILIYPCIDLTVIHDNKYPSFEKQKLTPPLSAEQMSKMIQIYLKNEDFAYQWLASPLLAQSHQHLPSTLIITAEFDPLHDQGCVYFEKLKSSLVNTEYHEIKGVVHGFFEMYGVLNKTKETINIIRAWLKNNTKSK	rate of hydrolysis appeared to be significantly slower	–
Para-nitrobenzyl esterase: B. subtilis para-nitrobenzyl esterase from plasmid PNB106R (SEQ ID NO:1; SEQ ID NO:7) (protein, listed as Bascillus subtilis) MTHQIVTTQYGKVKGTTENGVHKWKGIPYAKPPVGQWRFKAPEPPEVWEDVLDATAYGPICPQPSDLLSLSYTELPRQSEDCLYVNVFAPDTPSQNLPVMVWIHGGAFYLGAGSEPLYDGSKLAAQGEVIVVTLNYRLGPFGFLHLSSFDEAYSDNLGLLDQAAALKWVRENISAFGGDPDNVTVFGESAGGMSIAALLAMPAAKGLFQKAIMESGASRTMTKEQAASTAAAFLQVLGINESQLDRLHTVAAEDLLKAADQLRIAEKENIFQLFFQPALDPKTLPEEPEKSIAEGAASGIPLLIGTTRDEGYLFFTPDSDVHSQETLDAALEYLLGKPLAEKAADLYPRSLESQIHMMTDLLFWRPAVAYASAQSHYAPVWMYRFDWHPEKPPYNKAFHALELPFVFGNLDGLERMAKAEITDEVKQLSHTIQSAWITFAKTGNPSTEAVNWPAYHEETRETVILDSEITIENDPESEKRQKLFPSKGE	detectably hydrolyzed all divalent cation-sensitive indicator molecule precursors that were tested	–
SalE esterase: Acinetobacter SalE esterase expressed in E. coli BL21(DE3) (SEQ ID NO:3) (protein, listed as Acinetobacter sp.) MITYVLVHGSWHDGSLWEPVATHLRAQGHTVHCPTVAGHGPNADRNVTHAQCSQSIADYIVKHDLSEIVLLGHSYGGTIISKVAEAIPERIQRLIYWNAFVLQDGENMFDNMPEAYYELFTSLAAASGDNTVLLPYEVWRHAFINDADDQMAEETYKMLTPEPCQPFHDRLDLKKFYTLNIPKSYLNCTEDQALPAGFWHPKMSNRLGEFKLVEMGGSHEAMFTRPQELATKIIEASHD	no apparent Ca^2+ sensitivity was detected	–
HD-1 esterase: HD-1 esterase from an oil degrading bacterium (SEQ ID NO:4) (protein, Sequence encoding petroleum-degrading bacterium esterase.) MTLDAQAKAILDQIARSPMPKLHQVPASVARQMFEISCKLTEIKNLPIGRVEDRVIPGPDDTELPIRIYTPVAAPPGPLPVLVFFHGGGFVIGSLDSHDAPCRLIANEARCLVVSVDYRLAPENRFPAAVDDCLAAVTWVARNAAEINADPTRIAVGGDSAGGNLSAVVSQQLRDAGGPKIVFQLLIYPATDALHEGLSRTSNAEGYMLDKDLMSWFFAQYLGDGGGVDLADPRFSPLRHANLGNLGTIHVVVAGFDPLRDEGIAYAEALKAAGNKVTLSEFKGQIHGFCSMAGVIEAGRTALVEGAALLKEAFAQA	Slow hydrolyses of Fura-2 AM and Indo-1 AM	–
